Drawing on patent US20230074436A1 (DENALI THERAPEUTICS, published 2023), this text covers Kd for 16 molecules.

To fix the notation:
B1: Chimeric 20H4 (antibody, human IgG1, kappa, V domains shown)
VH: AVQLVESGGGLVQPKESLKISCAASGFTFSNAAMYWVRQAPGKGLELLARIRTKPNNYATYHADSVKGRFTISRDDSQSMVYLHMGNLKTEDTAMYYCTADMATGDYWGPGVMVTVSS
VL: DIQMTQSPPVLSVSVGDRVTLSCKASQNINKNLDWYQQKHGEAPKPLIYSTNNLQTGVPSRFSGSGSGTDYTLTISSLQPEDVATYYCYQYKSAWTFGGGTKLELRR
notes: also called Chi 20H4; chimeric 20H4 control
B2: HC2_LC3 (antibody, V domains shown)
VH: EVQLVESGGGLVQPGGSLRLSCAASGFTFSNAAMYWVRQAPGKGLELVSRIRTKPNNYATYHADSVKGRFTISRDNSKNTLYLQMNSLRAEDTAVYYCTADMATGDYWGQGTLVTVSS
VL: DIQMTQSPSSLSASVGDRVTITCKASQNINKNLDWYQQKPGKAPKPLIYSTNNLQTGVPSRFSGSGSGTDYTLTISSLQPEDFATYYCYQYKSAWTFGQGTKVEIK
notes: humanized 20H4 IgG
B3: HC5_LC3 (antibody, V domains shown)
VH: EVQLVESGGGLVQPGGSLRLSCAASGFTFSNAAMYWVRQAPGKGLELLARIRTKPNNYATYHADSVKGRFTISRDDSKNTVYLQMNSLRAEDTAVYYCTADMATGDYWGQGTLVTVSS
VL: DIQMTQSPSSLSASVGDRVTITCKASQNINKNLDWYQQKPGKAPKPLIYSTNNLQTGVPSRFSGSGSGTDYTLTISSLQPEDFATYYCYQYKSAWTFGQGTKVEIK
notes: humanized 20H4 IgG
B4: HC3_LC2 (antibody, V domains shown)
VH: EVQLVESGGGLVQPGGSLRLSCAASGFTFSNAAMYWVRQAPGKGLELVSRIRTKPNNYATYHADSVKGRFTISRDNSKNTVYLQMNSLRAEDTAVYYCTADMATGDYWGQGTLVTVSS
VL: DIQMTQSPSSLSASVGDRVTITCKASQNINKNLDWYQQKPGKAPKPLIYSTNNLQTGVPSRFSGSGSGTDFTLTISSLQPEDFATYYCYQYKSAWTFGQGTKVEIK
notes: humanized 20H4 IgG
B5: HC3_LC5 (antibody, V domains shown)
VH: EVQLVESGGGLVQPGGSLRLSCAASGFTFSNAAMYWVRQAPGKGLELVSRIRTKPNNYATYHADSVKGRFTISRDNSKNTVYLQMNSLRAEDTAVYYCTADMATGDYWGQGTLVTVSS
VL: EIVMTQSPATLSLSPGERATLSCKASQNINKNLDWYQQKPGQAPRPLIYSTNNLQTGIPARFSGSGSGTDFTLTISSLQPEDFAVYYCYQYKSAWTFGQGTKVEIK
notes: humanized 20H4 IgG
B6: HC5_LC2 (antibody, V domains shown)
VH: EVQLVESGGGLVQPGGSLRLSCAASGFTFSNAAMYWVRQAPGKGLELLARIRTKPNNYATYHADSVKGRFTISRDDSKNTVYLQMNSLRAEDTAVYYCTADMATGDYWGQGTLVTVSS
VL: DIQMTQSPSSLSASVGDRVTITCKASQNINKNLDWYQQKPGKAPKPLIYSTNNLQTGVPSRFSGSGSGTDFTLTISSLQPEDFATYYCYQYKSAWTFGQGTKVEIK
notes: humanized 20H4 IgG
B7: HC2_LC5 (antibody, V domains shown)
VH: EVQLVESGGGLVQPGGSLRLSCAASGFTFSNAAMYWVRQAPGKGLELVSRIRTKPNNYATYHADSVKGRFTISRDNSKNTLYLQMNSLRAEDTAVYYCTADMATGDYWGQGTLVTVSS
VL: EIVMTQSPATLSLSPGERATLSCKASQNINKNLDWYQQKPGQAPRPLIYSTNNLQTGIPARFSGSGSGTDFTLTISSLQPEDFAVYYCYQYKSAWTFGQGTKVEIK
notes: humanized 20H4 IgG
B8: HC5_LC5 (antibody, V domains shown)
VH: EVQLVESGGGLVQPGGSLRLSCAASGFTFSNAAMYWVRQAPGKGLELLARIRTKPNNYATYHADSVKGRFTISRDDSKNTVYLQMNSLRAEDTAVYYCTADMATGDYWGQGTLVTVSS
VL: EIVMTQSPATLSLSPGERATLSCKASQNINKNLDWYQQKPGQAPRPLIYSTNNLQTGIPARFSGSGSGTDFTLTISSLQPEDFAVYYCYQYKSAWTFGQGTKVEIK
notes: humanized 20H4 IgG
B9: HC5_LC4 (antibody, V domains shown)
VH: EVQLVESGGGLVQPGGSLRLSCAASGFTFSNAAMYWVRQAPGKGLELLARIRTKPNNYATYHADSVKGRFTISRDDSKNTVYLQMNSLRAEDTAVYYCTADMATGDYWGQGTLVTVSS
VL: EIVMTQSPATLSLSPGERATLSCKASQNINKNLDWYQQKPGQAPRLLIYSTNNLQTGIPARFSGSGSGTDFTLTISSLQPEDFAVYYCYQYKSAWTFGQGTKVEIK
notes: humanized 20H4 IgG
B10: HC5_LC1 (antibody, V domains shown)
VH: EVQLVESGGGLVQPGGSLRLSCAASGFTFSNAAMYWVRQAPGKGLELLARIRTKPNNYATYHADSVKGRFTISRDDSKNTVYLQMNSLRAEDTAVYYCTADMATGDYWGQGTLVTVSS
VL: DIQMTQSPSSLSASVGDRVTITCKASQNINKNLDWYQQKPGKAPKLLIYSTNNLQTGVPSRFSGSGSGTDFTLTISSLQPEDFATYYCYQYKSAWTFGQGTKVEIK
notes: humanized 20H4 IgG
B11: HC3_LC1 (antibody, V domains shown)
VH: EVQLVESGGGLVQPGGSLRLSCAASGFTFSNAAMYWVRQAPGKGLELVSRIRTKPNNYATYHADSVKGRFTISRDNSKNTVYLQMNSLRAEDTAVYYCTADMATGDYWGQGTLVTVSS
VL: DIQMTQSPSSLSASVGDRVTITCKASQNINKNLDWYQQKPGKAPKLLIYSTNNLQTGVPSRFSGSGSGTDFTLTISSLQPEDFATYYCYQYKSAWTFGQGTKVEIK
notes: humanized 20H4 IgG
B12: HC3_LC6 (antibody, V domains shown)
VH: EVQLVESGGGLVQPGGSLRLSCAASGFTFSNAAMYWVRQAPGKGLELVSRIRTKPNNYATYHADSVKGRFTISRDNSKNTVYLQMNSLRAEDTAVYYCTADMATGDYWGQGTLVTVSS
VL: EIVMTQSPATLSLSPGERATLSCKASQNINKNLDWYQQKPGQAPRPLIYSTNNLQTGVPARFSGSGSGTDYTLTISSLQPEDFAVYYCYQYKSAWTFGQGTKVEIK
notes: humanized 20H4 IgG
B13: HC2_LC6 (antibody, V domains shown)
VH: EVQLVESGGGLVQPGGSLRLSCAASGFTFSNAAMYWVRQAPGKGLELVSRIRTKPNNYATYHADSVKGRFTISRDNSKNTLYLQMNSLRAEDTAVYYCTADMATGDYWGQGTLVTVSS
VL: EIVMTQSPATLSLSPGERATLSCKASQNINKNLDWYQQKPGQAPRPLIYSTNNLQTGVPARFSGSGSGTDYTLTISSLQPEDFAVYYCYQYKSAWTFGQGTKVEIK
notes: humanized 20H4 IgG
B14: HC2_LC4 (antibody, V domains shown)
VH: EVQLVESGGGLVQPGGSLRLSCAASGFTFSNAAMYWVRQAPGKGLELVSRIRTKPNNYATYHADSVKGRFTISRDNSKNTLYLQMNSLRAEDTAVYYCTADMATGDYWGQGTLVTVSS
VL: EIVMTQSPATLSLSPGERATLSCKASQNINKNLDWYQQKPGQAPRLLIYSTNNLQTGIPARFSGSGSGTDFTLTISSLQPEDFAVYYCYQYKSAWTFGQGTKVEIK
notes: humanized 20H4 IgG
B15: HC3_LC3 (antibody, V domains shown)
VH: EVQLVESGGGLVQPGGSLRLSCAASGFTFSNAAMYWVRQAPGKGLELVSRIRTKPNNYATYHADSVKGRFTISRDNSKNTVYLQMNSLRAEDTAVYYCTADMATGDYWGQGTLVTVSS
VL: DIQMTQSPSSLSASVGDRVTITCKASQNINKNLDWYQQKPGKAPKPLIYSTNNLQTGVPSRFSGSGSGTDYTLTISSLQPEDFATYYCYQYKSAWTFGQGTKVEIK
notes: humanized 20H4 IgG
B16: HC3_LC4 (antibody, V domains shown)
VH: EVQLVESGGGLVQPGGSLRLSCAASGFTFSNAAMYWVRQAPGKGLELVSRIRTKPNNYATYHADSVKGRFTISRDNSKNTVYLQMNSLRAEDTAVYYCTADMATGDYWGQGTLVTVSS
VL: EIVMTQSPATLSLSPGERATLSCKASQNINKNLDWYQQKPGQAPRLLIYSTNNLQTGIPARFSGSGSGTDFTLTISSLQPEDFAVYYCYQYKSAWTFGQGTKVEIK
notes: humanized 20H4 IgG

For this test, the target named is human alpha-synuclein monomer (human, UniProt P37840 1-140). The experiment in a line: SPR (Biacore 8K), IgG captured on anti-human Fc, aSyn monomer injected.
Protocol: Serial 3-fold dilutions of aSyn were injected at a flow rate of 30 μL/min. Each sample was analyzed using a 3-minute association and a 10-minute dissociation. After each injection, the chip was regenerated using 3 M MgCl₂. Binding response was corrected by subtracting the RU from a flow cell capturing an irrelevant IgG at similar density. A 1:1 Languir model of simultaneous fitting of kₒₙ and koff was used for kinetics analysis.
The molecule B1 displayed a dissociation constant Kd of 2.96 nM.

In the case of B2, binding was put at a Kd of 6.59 nM.

B3: binding was characterised by a dissociation constant (Kd) of 5.17 nM.

B4 gave a Kd of 1.63 nM.

The molecule B5 yielded a Kd of 2.4 nM.

As for B6, the affinity, expressed as Kd, was 1.56 nM.

In turn, B7 yielded a Kd of 4.11 nM.

With B8, the Kd worked out at 2.46 nM.

Regarding B9, the Kd stood at 8.48 nM.

In turn, B10 registered a Kd of 1.97 nM.

In turn, B11 displayed a Kd of 2.12 nM.

Molecule B12 yielded a Kd of 2.74 nM.

On to B13, for which the dissociation constant (Kd) was found to be 5.27 nM.

B14 registered a Kd of 9.78 nM.

Molecule B15 returned a Kd of 5.2 nM.

B16 yielded a Kd of 9.08 nM.

By Kd is commonly meant the concentration at which binding is half-saturated.
